# In paper PMC5489419 (Molecular cell, 2017):
# B1: WWP2 C-terminal fragment Y (WW3 domain, WW4 domain, HECT domain) of TEV-cleaved WWP2 (domain or fragment)
# chain: not shown
# Molecular target: WWP2 N-terminal fragment X (C2 domain, WW1 domain, WW2 domain) of TEV-cleaved WWP2 (human, UniProt O00308 1-395)
# Test: SEC
binder,measurement,value
B1,binding result,binds
